Data as given in patent WO2001004159A1.

Assays:
[1] = molecular target: platelet Fc receptor Fc-gamma RIIA (human) (UniProt P12318); test: cell-based or functional assay
[2] = molecular target: hPF4/heparin complex (human) (UniProt P02776); test: cell-based or functional assay
[3] = molecular target: hPF4/heparin complex (human) (UniProt P02776); test: ELISA, wells coated with hPF4 with or without heparin
[4] = molecular target: hPF4/heparin complex (human) (UniProt P02776); test: ELISA, wells coated with hPF4/heparin complex
[5] = molecular target: hPF4/heparin complex (human) (UniProt P02776); test: ELISA (A405), KKO below 0.14 micrograms per milliliter

UniProt P02776, sequence (P02776 32-101, one chain of several): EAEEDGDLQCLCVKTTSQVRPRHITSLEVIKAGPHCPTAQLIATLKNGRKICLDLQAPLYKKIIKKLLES
UniProt P12318, sequence (P12318 34-317, form in doubt): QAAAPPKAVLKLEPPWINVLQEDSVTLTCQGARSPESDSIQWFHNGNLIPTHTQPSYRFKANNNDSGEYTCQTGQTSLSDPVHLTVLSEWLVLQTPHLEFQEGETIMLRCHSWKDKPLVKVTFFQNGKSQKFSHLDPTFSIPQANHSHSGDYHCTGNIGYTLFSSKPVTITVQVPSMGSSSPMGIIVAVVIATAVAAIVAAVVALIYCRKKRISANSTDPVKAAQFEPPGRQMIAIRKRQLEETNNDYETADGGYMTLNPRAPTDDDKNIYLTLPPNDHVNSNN

14C-serotonin release induced by KKO in the presence of the FcγRIIA-specific mAb IV.3 [1]: < 5 % release | KKO concentration required to initiate 14C-serotonin release (micrograms per milliliter) [2]: > 180 | A405 ratio to hPF4/heparin complex versus hPF4 alone [3]: > 30 | EC50 [4]: 0.036 µg/mL | ratio of binding to PF4/heparin complex vs. binding to PF4 alone [5]: > 400
Substance: murine monoclonal antibody KKO
